Test results from US4748122A, “2,5-diketo-D-gluconic acid reductase” (Shionogi & Co., Ltd., priority 1983, dated 1988).
Values joined by “and” are separate entries in the source; they are usually repeats but may differ in a detail not shown here. Identical values can stand only once.

Columns and labels:
[1] = pH stability of the enzyme (residual activities after treatment in buffers); assay type: physicochemical
Procedure: (determined on the basis of residual activities after treatments in 0.1M dimethylglutaric acid buffer for pH 4-5, in 0.1M Good buffer (PIPES) for pH 6-7 and in 0.1M Tris-HCl buffer for ph 8-9 at 28° C. for 30 minutes). Residual activity of 70% or more is recognized in pH 5-7 while only those of 30% or less are recognized in pH 4 or below, and in pH 8 or above.
Ninety-six (96) % or more of the activity is lost after being stood at pH 4 or below, or pH 8 or above and at 28° C. for 2 hours.

[2] = Isoelectric point electrophoresis of the enzyme; assay type: physicochemical
Procedure: (10) Isoelectric point: pH 4.4±0.3 (measured by isoelectric point electrophoresis).
Five (5) μl of the enzyme solution was then subjected to isoelectric point electrophoresis (gel; polyacrylamide: conditions of phoresis(a); pH interval 2.5-5; anode electrolyte=0.1M H2 SO4 cathode electrolyte=0.1M NaOH, 6W, 2,700 VH: conditions of phoresis(b); pH interval 4.0-6.5; anode electrolyte=0.04M DL-glutamic acid, cathode electrolyte=0.2M NaOH, 25W, 2,600 VH; temperature, 18°-20° C.) to give a result that the enzyme migrated in a single band at a position which corresponds to pH 4.4±0.2. From the previously-describedfacts, it was confirmed that the purified enzyme solution was one which solely contains 25DKG-Rase.

[3] = Optimum pH and range of reaction temperature of the enzyme; assay type: biochemical
Procedure: In order to clarify the relation between the reaction velocity of the 25DKG-Rase and pH, the enzymatic activities were measured by using the following buffers in place of the buffer of the reaction system in (5)-(ii).
The results of the measurements of the enzymatic activities on the substrates, Ca-25DKG and 5KF at the respective pHs are shown in Table 4 below.
The reaction velocities in the reaction system of (5)-(ii) which employs the substrate, Ca-25DKG were measured at varying temperatures from 15° to 50° C.
Enzymatic activities of 25DKG-Rases obtained from K-106 and T-13 were measured at varying pH from 4 to 9 (substrate: Ca-25DKG, reaction temperature: 30° C.).

**Q.** Which results are given for “2,5-diketo-D-gluconic acid reductase [25DKG-Rase]”?
**A.** pH stability ([1]; 28° C. for 30 minutes in 0.1M buffers): 5-7 pH; Residual activity ([1]; pH 4 or below, and pH 8 or above, 28° C. for 30 minutes): ≤ 30%; activity lost ([1]; pH 4 or below, or pH 8 or above, 28° C. for 2 hours): ≥ 96%; Residual activity ([1]; pH 5-7, 28° C. for 30 minutes): ≥ 70%; isoelectric point [2]: 4.4±0.2 pH and 4.4±0.3 pH; optimum pH [3]: 6-7 pH
